{"source": "paper PMC12612064", "target": "Pre-cleaved FUS (tag-free Fused in sarcoma) (UniProt P35637)", "sequence (P35637 whole entry, the tested form may be a part)": "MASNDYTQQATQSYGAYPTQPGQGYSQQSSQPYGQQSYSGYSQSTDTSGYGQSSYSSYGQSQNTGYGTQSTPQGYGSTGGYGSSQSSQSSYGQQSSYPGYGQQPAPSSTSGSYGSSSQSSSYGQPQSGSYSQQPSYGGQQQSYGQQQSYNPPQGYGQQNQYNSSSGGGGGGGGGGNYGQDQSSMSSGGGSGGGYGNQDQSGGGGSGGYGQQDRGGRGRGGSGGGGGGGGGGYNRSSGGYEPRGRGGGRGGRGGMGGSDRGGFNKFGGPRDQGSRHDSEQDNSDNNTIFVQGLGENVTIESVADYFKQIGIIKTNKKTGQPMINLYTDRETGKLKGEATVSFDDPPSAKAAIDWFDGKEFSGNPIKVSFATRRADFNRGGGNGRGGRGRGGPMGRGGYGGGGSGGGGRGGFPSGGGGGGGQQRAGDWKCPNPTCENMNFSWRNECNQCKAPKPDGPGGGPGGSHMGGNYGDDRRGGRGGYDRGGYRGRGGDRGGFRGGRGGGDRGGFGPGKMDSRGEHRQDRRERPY", "assay": "fluorescence correlation spectroscopy"}
{"substance": "Cy3-labeled pre-cleaved FUS (from UniProt P35637 1-526) (natural protein)", "values": [{"measurement": "second critical concentration (condensate formation)", "result": 1, "unit": "µM"}]}
